In article PMC10998878, “Inhibition of acyl-CoA binding protein (ACBP) by means of a GABAARγ2-derived peptide” (Cell Death & Disease, 2024):
Where no end group is shown, it is not given here.

Legend:
[1] = tested on: Huh-7 cells; experiment: WST-8 conversion (metabolic activation) by Huh-7 cells; type: cell-based, human; settings: for effect on RecACBP/DBI-stimulated WST-8 conversion: then RecACBP/DBI 4 h, n = 4
Protocol: Media and cell culture supplements were purchased from Gibco-Invitrogen (Carlsbad, CA, USA). Plasticware was purchased from Corning B.V. Life Sciences (Schiphol-Rijk, The Netherlands). Unless reported otherwise, the cell line used in this study was cultured at standard conditions (37 °C, 5% CO2, Dulbecco’s modified Eagle’s medium containing 10% fetal bovine serum, 10 mM HEPES buffer, 100 mg/L sodium pyruvate, 100 U/mL penicillin G sodium, and 100 µg/mL streptomycin sulfate). 2-deoxy-D-glucose (# D8375) and rotenone (# R8875) were purchased from Sigma (Burlington, MA, USA). Human hepatocellular carcinoma (Huh-7) cell line was used for in vitro experiments. Cells were plated in 6- or 96-well plates and grown for 24 h before treatments.
(§1) WST-8 conversion assays were conducted utilizing the Cell Counting Kit-8 (Sigma-Aldrich, #96992). Cells were seeded in a 96-well plate at a density of 3000 cells per well and incubated overnight for adherence. Then, the culture medium was removed, and fresh medium containing the specified treatments was added to the wells. Immediately following the addition of treatments, 10 μL of CCK-8 reagent was introduced to each well. Subsequently, the cells were incubated for 4.5 h at 37 °C to facilitate the conversion of WST-8 in response to cellular activity. Following the incubation period, the absorbance at 450 nm was quantified using a VICTOR® Nivo™ microplate reader. This measurement served as an indicator of WST-8 conversion, reflecting cellular metabolic activity.
Fig. 6 Inhibition of the metabolic effects of ACBP/DBI on hepatocytes by the GABAARγ2-derived eicosapeptide. A WST-8 conversion by murine primary hepatocytes treated with increasing concentrations of recombinant ACBP/DBI protein (RecACBP/DBI) for 4 h. Hepatocytes were isolated from tamoxifen-induced Acbp/Dbi f/f or Acbp/Dbi KO full-body genetic background mice (white- or blue-colored graphs respectively). […] For statistical analysis p values are calculated by one-way ANOVA. B WST-8 conversion by control (shUNR) and ACBP/DBI-knocked down (shACBP/DBI) human Huh-7 cells treated with increasing concentrations of RecACBP/DBI for 4 h. shUNR and shACBP/DBI cells are represented by white- or blue-colored graphs respectively. […] C WST-8 conversion by Huh-7 cells treated with RecACBP/DBI or negative control (4 h). Cells were pre-treated with 2-deoxy-D-glucose (2-Deoxy-D-glu; 300 µM) or vehicle (2 h). […] D WST-8 conversion by Huh-7 cells treated with RecACBP/DBI or negative control (4 h). Cells were pre-treated with rotenone (0.5 µM) or vehicle (2 h). […] E WST-8 conversion by Huh-7 cells treated with RecACBP/DBI or negative control (4 h). Prior to administration, RecACBP/DBI was overnight pre-incubated with monoclonal antibody (α-ACBP/DBI) or isotype IgG1. […] F WST-8 conversion by Huh-7 cells treated with RecACBP/DBI or negative control (4 h). Prior to administration, RecACBP/DBI was overnight pre-incubated with GABAARγ2 (WT or F77I-mutated) eicosapeptides.

[2] = tested on: native ACBP/DBI protein (mouse liver extracts); experiment: Pull down / immunoprecipitation of native ACBP/DBI from liver extracts; type: binding; settings: mouse liver protein extract (500 μg), peptide-coated beads, overnight 4 °C, immunoblot for ACBP
Protocol: The physical interaction between the native ACBP and GABAARγ2 peptides was examined by standard immunoprecipitation (IP) and immunoblotting protocols. In detail, liver protein extracts (500 μg) were immunoprecipitated on protein A/G-Sepharose beads (Merck Millipore, Burlington, MA, USA, #GE17-0618-01) coated with (1× 2× 4×) either GABAARγ2 wild type (WT) or mutated (F77I) eicosapeptide (Biosynth ltd) or its negative control (PBS). Each IP reaction was incubated overnight (4 °C) in a rotation chamber followed by three consecutive rounds of PBS washing the next day. Each washing round included a PBS resuspension of the pellet and a re-centrifugation (12,000 × g, 4 °C). Finally, beads were resuspended in 20 μL of NUPAGE 4× buffer (Life Technologies, CA, USA, #NP0008), heated at 100 °C (10 min), followed by standard immunoblotting for the ACBP protein (Abcam #ab231910).
Fig. 5 Biophysical and biochemical detection of a direct interaction between ACBP/DBI and the GABAARγ2-derived eicosapeptide. A Schematic representation of the GABAAR and the GABAARγ2-derived eicosapeptides. B Surface plasmon resonance kinetics of ACBP-GABAARγ2-derived eicosapeptide (WT and F77I) interactions. Representative ACBP immunoblot (C) from control- or GABAARγ2-immunoprecipitated samples. Anti-GABAARγ2 immunoprecipitation (IP) assay was employed in order to validate the GABAARγ2 WT peptide interaction with native ACBP (in murine hepatic protein extracts), and quantification (D). […] For statistical analysis p value (indicating statistical comparisons with the control condition) was calculated by Mann–Whitney U-test. E Anti-GABAARγ2 IP assay to address the physical interaction between GABAARγ2 peptides and murine hepatic ACBP protein. Interaction was validated using an increasing gradient of biotinylated WT/F77I peptides that were bound on the surface of streptavidin beads as part of the IP assay. […]

[3] = tested on: primary mouse hepatocytes; experiment: WST-8 conversion (metabolic activation) by primary hepatocytes; type: cell-based; settings: Acbp/Dbi f/f and KO, increasing concentrations of RecACBP/DBI, 4 h (text: within 4.5 h), n = 3
Protocol: After filtration through a 100 µm cell strainer and successive centrifugations at 30 × g, 4 °C for 5 min, cells were resuspended in the following attachment culture medium: DMEM/F12, 20 mM HEPES (pH = 7.4), 5 mM glucose, 10% FBS (Sigma), 5 mg/mL BSA, 100 U/mL penicillin, and 100 μg/mL streptomycin. The cells were then purified by density gradient centrifugation using an isotonic solution of Percoll (GE Healthcare Bio-Sciences AB, Uppsala, Sweden). Cell viability was assessed using Trypan blue exclusion. Cells were plated in a 96-well plate overnight to facilitate cell attachment before proceeding with experiments.
as §1, with “Subsequently, the cells were incubated for 4.5 h at 37 °C to facilitate the conversion of WST-8 in response to cellular activity.” left out, “This measurement served as an indicator of WST-8 conversion, reflecting cellular metabolic activity.” left out
Fig. 6 Inhibition of the metabolic effects of ACBP/DBI on hepatocytes by the GABAARγ2-derived eicosapeptide. […] For statistical analysis p values are calculated by one-way ANOVA. […]

[4] = tested on: C57BL/6 mice; experiment: Food intake after intravenous injection; type: in vivo, mouse; settings: i.v., 0.5 mg/kg, after 24 h starvation, cumulative food intake 30 min, n = 4 to 9
Protocol: Prior to experimentation, mice were subjected to 24 h starvation followed by individual housing and acclimatization in individual cages (2 h). Subsequently, mice were intravenously (i.v.) injected with recombinant ACBP/DBI protein (RecACBP/DBI) (total volume of 200 μL, 0.5 mg/kg body weight), either alone or in combination with GABAARγ2 peptides (5× molar excess). Cumulative food intake was then analyzed as previously described. Prior to i.v. injections, the RecACBP mixes were pre-incubated (16 h, 4 °C) with GABAARγ2 peptides.

[5] = molecular target: T1, recombinant murine ACBP/DBI (acyl-CoA binding protein / diazepam binding inhibitor) (mouse, UniProt P31786 1-87, biotin (site not stated; for the SPR chip)); experiment: SPR; Biacore 2000; biotinylated ACBP/DBI immobilised on SA chip (1600 RU); peptides injected at 10 µM and 100 µM in HBS-EP, 30 µL/min, 25 °C; association 4 min, dissociation 5 min; control surface streptavidin alone; settings: both partners purified
T1 construct: Biotinylated for immobilisation on the SA chip; in the food intake experiment murine RecACBP/DBI was injected and no biotin is mentioned; also called RecACBP/DBI; recombinant ACBP/DBI; source: recombinant, from the Institute of Psychiatry and Neuroscience of Paris, France
T1 sequence (looked up): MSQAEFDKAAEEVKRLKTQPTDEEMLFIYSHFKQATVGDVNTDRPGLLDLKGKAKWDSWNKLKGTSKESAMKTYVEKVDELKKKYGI

## O=CC[C@@H](O)[C@H](O)[C@H](O)CO [2-deoxy-D-glucose, reference compound]
[1]; pre-treated with 2-deoxy-D-glucose 300 µM for 2 h
  effect on RecACBP/DBI-stimulated WST-8 conversion: abolished

## C=C(C)[C@H]1Cc2c(ccc3c2O[C@@H]2COc4cc(OC)c(OC)cc4[C@@H]2C3=O)O1 [rotenone, reference compound]
[1]; pre-treated with rotenone 0.5 µM for 2 h
  effect on RecACBP/DBI-stimulated WST-8 conversion: abolished

## Biotinylated GABAARγ2-EP-WT: Biotinylated GABAARγ2-EP-WT immobilized on streptavidin-precoated beads (INMEYTIDIFFAQTWYDRRL; also: biotin, site not given here)
[2]
  pull down of endogenous/native ACBP/DBI, in words: absorbed endogenous ACBP/DBI protein from mouse liver extracts

B1: recombinant ACBP/DBI protein: recombinant acyl-CoA binding protein encoded by diazepam binding inhibitor (protein)
chain: T1 sequence (looked up)
modifications: biotin (site not stated; for the SPR chip)
[1]; shUNR and shACBP/DBI, increasing concentrations of RecACBP/DBI, 4 h (text: within 4.5 h), n = 8–9
  WST-8 conversion, metabolic activation by the substance: increase in the capacity to reduce
[3]
  WST-8 conversion, metabolic activation by the substance: increase in the capacity to reduce
[4]
  food intake / appetite, effect of recombinant ACBP/DBI: induced an increase in appetite

B2: GABAARγ2-derived eicosapeptide, wild type (GABAARγ2-EP-WT) (peptide)
peptide: INMEYTIDIFFAQTWYDRRL
notes: GABAA receptor gamma-2 subunit (GABRG2), 20-mer with F77 in position 10; 100% identical in zebrafish, chicken, mouse and human; Stocked in DMSO at 1 mg/mL; used without a stated biotin in SPR and in the functional tests; also called GABAARγ2 WT peptide; WT EP; source: synthetic peptide (Biosynth ltd)
[5]
  binding result: binds
